Data from publication PMC12713037, “FBXO44 Regulates FOXP1 Degradation Through AURKA‐Dependent Phosphorylation to Promote Colorectal Cancer Progression” (Advanced Science, 2025).

T1: Purified Myc-FOXP1 (UniProt Q9H334 1-677)
T1 construct: Forkhead box protein P1 (FOXP1), Myc-tagged, purified for the GST pull-down; source: purified
T1 sequence (looked up): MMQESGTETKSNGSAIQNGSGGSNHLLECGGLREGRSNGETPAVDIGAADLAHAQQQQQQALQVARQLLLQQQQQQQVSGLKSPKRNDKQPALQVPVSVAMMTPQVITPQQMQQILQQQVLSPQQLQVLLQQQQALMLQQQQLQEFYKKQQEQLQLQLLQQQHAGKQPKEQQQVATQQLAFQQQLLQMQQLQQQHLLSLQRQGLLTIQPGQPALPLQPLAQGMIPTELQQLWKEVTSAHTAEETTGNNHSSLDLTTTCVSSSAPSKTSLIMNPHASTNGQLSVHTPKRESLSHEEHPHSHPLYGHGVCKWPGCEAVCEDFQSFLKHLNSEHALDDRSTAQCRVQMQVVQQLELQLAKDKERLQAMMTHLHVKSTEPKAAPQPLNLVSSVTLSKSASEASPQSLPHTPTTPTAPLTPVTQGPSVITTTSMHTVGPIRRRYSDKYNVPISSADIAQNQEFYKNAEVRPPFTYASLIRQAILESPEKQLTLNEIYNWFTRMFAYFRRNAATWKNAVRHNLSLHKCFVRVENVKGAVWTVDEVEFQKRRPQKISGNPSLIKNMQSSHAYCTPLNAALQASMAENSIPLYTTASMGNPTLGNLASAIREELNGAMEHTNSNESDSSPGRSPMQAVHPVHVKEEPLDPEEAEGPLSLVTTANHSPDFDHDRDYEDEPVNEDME

B1: Recombinant GST-FBXO44 (natural protein, UniProt Q9H4M3 1-255, looked up)
chain: MAVGNINELPENILLELFTHVPARQLLLNCRLVCSLWRDLIDLVTLWKRKCLREGFITEDWDQPVADWKIFYFLRSLHRNLLHNPCAEEGFEFWSLDVNGGDEWKVEDLSRDQRKEFPNDQVKKYFVTSYYTCLKSQVVDLKAEGYWEELMDTTRPDIEVKDWFAARPDCGSKYQLCVQLLSSAHAPLGTFQPDPATIQQKSDAKWREVSHTFSNYPPGVRYIWFQHGGVDTHYWAGWYGPRVTNSSITIGPPLP
notes: F-box only protein 44 (FBXO44) fused to GST; source: purified from bacteria

Legend:
[1] = target: FBXO44 (F-box only protein 44) (UniProt Q9H4M3); test: co-IP with anti-Flag, Western blot; details: reference: Myc-FOXP1 wild type with His-AURKA; sites S440
Purified Myc-FOXP1 = target: T1, Purified Myc-FOXP1; test: pull-down; GST-FBXO44 coupled to glutathione-Sepharose beads incubated with purified Myc-FOXP1; retained proteins analysed by immunoblot; details: both partners purified

Molecule | binding against the reference [1] | binding result (Purified Myc-FOXP1)
FOXP1 (Forkhead box protein P1) (from UniProt Q9H334) Myc-FOXP1 S440A with His-AURKA | weaker | –
B1 | – | binds
